According to patent publication US20210009713A1 (MIDWESTERN UNIVERSITY, published 2021):
Like-named read-outs stand apart in the source and are kept apart here.

T1: aspartyl (asparaginyl) β-hydroxylase (ASPH) (UniProt Q12797 75-758, limits assumed)
T1 construct: also called ASPH protein
T1 sequence (looked up): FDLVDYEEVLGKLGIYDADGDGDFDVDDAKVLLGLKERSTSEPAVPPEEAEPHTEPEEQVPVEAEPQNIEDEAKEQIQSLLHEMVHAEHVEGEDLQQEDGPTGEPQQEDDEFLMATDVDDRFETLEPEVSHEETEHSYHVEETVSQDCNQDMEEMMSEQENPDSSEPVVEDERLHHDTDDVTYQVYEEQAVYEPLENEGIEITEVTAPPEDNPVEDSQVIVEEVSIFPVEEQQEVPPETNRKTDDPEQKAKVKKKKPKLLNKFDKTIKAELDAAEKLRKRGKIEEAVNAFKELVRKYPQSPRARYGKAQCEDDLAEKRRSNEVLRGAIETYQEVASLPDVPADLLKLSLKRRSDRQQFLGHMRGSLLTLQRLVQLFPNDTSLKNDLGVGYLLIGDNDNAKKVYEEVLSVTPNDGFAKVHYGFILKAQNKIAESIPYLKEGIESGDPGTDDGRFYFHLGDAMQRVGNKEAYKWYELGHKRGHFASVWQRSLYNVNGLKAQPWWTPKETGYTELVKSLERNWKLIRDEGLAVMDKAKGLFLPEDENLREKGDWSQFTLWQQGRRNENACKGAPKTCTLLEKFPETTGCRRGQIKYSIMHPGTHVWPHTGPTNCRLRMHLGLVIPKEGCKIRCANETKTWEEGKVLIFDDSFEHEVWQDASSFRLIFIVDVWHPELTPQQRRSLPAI

B1: 9H2/9K3 (antibody, part only; not given: kappa light chain, V domains shown, part only)
VH: QSLEESGGDLVKPGASLTLTCKASGFDFISNAMCWVRQAPGKGPEWIACIDNGDGSTDYATWAKGRFTISKTSSTTVTLQMTSLTAADTATYFCTRNFNLWGQGTLTVSSGQPKAPSVFPLAP
B2: 5H4/5K3 (antibody, V domains shown)
VH: QSLEESGGDLVKPGASLTLTCKASGFDFSSNAMCWVRQAPGKGPEWIACIDNGDGSTDYATWAKGRFTISKTSSTTVTLQMTSLTAADTATYFCTRNFNLWGQGTLVTVSS
VL: AQVLTQTASSVSAAVGGTVTISCQSSQSVYDNNRLAWFQQKPGQPPKLLIYETSKLASGVPLRFKGSGSGTQFTLTISDLECDDAATYYCLGSYSGYIYTFGGGTEVVVKG
notes: The entries are translated variable regions that still carry the leader and the start of the constant region (GQPK... / GDPV...)

Target: T1, aspartyl (asparaginyl) β-hydroxylase …
Experiment: SPR, antibody captured via Protein G, ASPH as analyte
Description: The interaction between ASPH and a set of 6 antibodies were characterized by Essai Sciences LLC (Stillwater, Okla.) on a SensiQ Pioneer SPR Platform. The COOH2 sensor chip, which contains a planar dextran surface, was used for target immobilization. The buffer system was 10 mM HEPES, pH 7.4, 150 mM NaCl, and 0.01% Tween-20.
All channels of a COOH2 sensor chip were activated with a five-minute injection of 40 mM EDC and 10 mM NHS. Protein G was then injected across channels 1 and 2. 1 M ethanolamine, pH 8.0 was then injected across all three channels. Approximately 1000 response units of Protein G were captured on both channels 1 and 2 (FIG. 18). For each antibody-ASPH interaction, the antibody was injected on channel 1, leaving channels 2 and 3 as a Protein G reference and empty channel reference, respectively. After antibody capture, ASPH was injected at a single concentration. Following injection of ASPH, all three channels were injected with 10 mM NaOH for one minute to regenerate the Protein G surface. This was done twice for each antibody, at each tested concentration of ASPH.

Row | Binder | Kd | koff | kon | Kd (record 2)
1 | B1 | 61.9 nM | 0.00185 s⁻¹ | 29800 M⁻¹ s⁻¹ | 60 nM
2 | B2 | 144 nM | 0.00243 s⁻¹ | 16800 M⁻¹ s⁻¹ | –
